Source: patent US20230331781A1, “PAR4 DERIVED PEPTIDES, ANALOGS AND USES THEREOF” (Yissum Research Development Company of the Hebrew …, priority 2019, published 2023)
Numbered stars: 1 amine (or outer) side, 2 acyl side, 3 side chain; on linkers, the order of the positions; unused ones are H or OH. Bridge positions count the residues as written; N and C are the ends. Square brackets hold non-standard residues; d marks the D form. Ends that are not written are not given here. GlyBU(C4) = Gly building unit (N-alpha-functionalized Gly) carrying a C4 alkyl chain (n = m = 4), bridged through a urea group; CO = O=C([*:1])[*:2]

What was measured:
PAR4-Akt association = target: T1, PAR4-Akt association (Homo sapiens, UniProt P31749); assay: PAR4-Akt association, immunoprecipitation in HEK293 cells transfected with flg-Par4 and AYPGKF activated; assay type: cell-based; details: HEK293 cells, 50 nM-150 μM, FIG. 8A
T1 construct: FLAG; expressed in transfected cells
T1 sequence (P31749 whole entry): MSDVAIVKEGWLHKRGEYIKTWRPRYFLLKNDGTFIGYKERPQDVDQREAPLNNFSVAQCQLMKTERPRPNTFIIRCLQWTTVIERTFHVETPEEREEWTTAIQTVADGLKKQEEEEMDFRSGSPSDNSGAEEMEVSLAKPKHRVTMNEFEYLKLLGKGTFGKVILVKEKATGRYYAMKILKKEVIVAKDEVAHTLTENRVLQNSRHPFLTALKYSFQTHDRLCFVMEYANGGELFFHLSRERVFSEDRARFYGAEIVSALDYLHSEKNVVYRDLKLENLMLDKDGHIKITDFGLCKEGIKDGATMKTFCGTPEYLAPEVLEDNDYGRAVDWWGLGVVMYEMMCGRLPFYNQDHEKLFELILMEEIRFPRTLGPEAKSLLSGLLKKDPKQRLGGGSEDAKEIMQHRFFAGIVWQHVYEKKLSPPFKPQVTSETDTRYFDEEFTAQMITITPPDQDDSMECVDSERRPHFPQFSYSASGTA
Description: Experiments shown in FIG. 3A-3C were carried out in MDA-MB-231 cells. […] Unpaired Student's t test was used. This experiment is a representative of three independent experiments performed in triplicates. […] HEK 293T cells were transfected with wt flg-Par4 followed by AYPGKF activation of PAR4. IP was performed using anti fig abs of cells treated or not with CTP4-A peptide and immunoblotting with anti-Akt abs.
FIG. 4A—PH-Akt module alone binds PAR4-C-tail but not mutant R25C. HEK 293 cells were transiently transfected with flg-Par4 construct and either with GFP-PH-Akt domain alone or GFP-R25C. IP of cell lysates following PAR4 AYPGKF activation was carried out using anti-flg abs. Detection of either Akt-PH domain alone associated with PAR4 was performed with anti-GFP. […] FIG. 4C—The PI3K inhibitor […] inhibits the binding of Akt to PAR4. Treatment of HEK 293 cells with LY294002 for various time points or not, following transient transfection with flg-Par4 and AYPGKF activation was performed. Cell lysates were immunoprecipitated with anti-flg antibodies, and anti-Akt was used to assess the association of Akt with the PAR4 C-tail. […] Amino acid residues of PAR4- and PAR2-PH binding motifs. FIG. 4E—mutations inserted into flg-Par4 generated flg-Par4MutE346A. HEK293 cells were transiently transfected with either wt flg-Par4 or flg-Par4MutE346A. IP of cell lysates following PAR4 activation was carried out using anti-flg abs. Detection of PAR4-Akt association was performed by anti Akt Abs. While association with wt Par4 is seen after 5 and 10 min AYPGKF PAR4 activation, when using flg-Par4 E346A no inhibition is seen and effective association with Akt is seen at 30 min activation. FIG. 4F—utations inserted into flg-Par4 generated flg-Par4Mut F347A and flg-Par4Mut D349A. HEK293 cells were transiently transfected with either wt flg-Par4 or flg-Par4Mut F347A or flg-Par4Mut D349A. IP of cell lysates following PAR4 activation was carried out using anti-f/g abs. Detection of PAR4-Akt association was performed by anti Akt Abs. While association with wt Par4 is seen after 5 min AYPGKF PAR4 activation, no such binding is obtained when using either flg-Par4 F347A or flg-Par4D349A.
HEK293 cells were transiently transfected with flg-Par4 followed by AYPGKF PAR4 activation in the presence and absence of PAR4c (4-4) within the range of 50 nM-150 μM. IP of cell lysates following different periods of activation was carried out using anti flg abs. Detection of Akt was performed by anti Akt abs. β-actin serves as a control gene for loading. […] Matrigel invasion before and after AYPGKF PAR4 activation and in the presence and absence of PAR4 c(4-4) inhibitor in the activated PAR4 cells. […] FIG. 8C—Histograms represent quantification of the cells/HPF invaded the Matrigel layer. […]

PAR2 and Akt = target: T2, PAR2 and Akt (Homo sapiens, UniProt P31749); assay: PAR2-Akt association, immunoprecipitation in HEK293 cells transfected with Par2 and SLIGKV activated; assay type: cell-based; details: HEK 293 cells, flag-hPar2, SLIGKV 200 μM; 150 μM, 1 hr prior to activation; FIG. 11
T2 construct: FLAG; expressed in transfected cells; host or cells: HEK293
T2 sequence (P31749 whole entry): as above
Description: HEK293 cells were transiently transfected with Par2 followed by SLIGKV PAR2 activation in the presence and absence of PAR4 c(4-4) at 150 μM. IP of cell lysates following different time of activation was carried out using anti PAR2 abs. Detection of Akt was performed by anti Akt abs. β-actin serves as a control gene for loading.
Briefly, HEK 293 cells were transfected with 0.8 μg flag-hPar2 and serum starved overnight. PAR(4-4) in concentration of 150 μM was applied onto the cell monolayer for 1 hr prior to PAR2 activation (by the peptide SLIGKV—200 μM) for the indicated time periods (overall transfection period is 48 hrs).
The cells (HEK 293) were solubilized and lysed and protein cell lysates (400 μg) were used for immunoprecipitation analysis, as described in Example 4.

- inhibition of Akt/PKB-PAR4 association (IP) (PAR4-Akt association): strong inhibition
- inhibition of Akt/PKB-PAR4 association (IP) (PAR4-Akt association; listed as PAR4 c(4-4)): inhibits
- inhibition of PAR2-AKT association (IP) (PAR2 and Akt): efficiently inhibited
Substance: Pc(4-4): backbone cyclic analog of Formula I, m=n=4, ring size 30 atoms (S[GlyBU(C4)]EFRDK[GlyBU(C4)]; bridge 2-8 via CO; not fully specified; printed as SZ1EFRDKX3)
